Results reported in paper PMC3273815.

Key:
[1] = target: BcMCM presensor I β-hairpin mutant (R737A) (Bacillus cereus (integrated prophage)); experiment: SEC
[2] = target: BcMCM Walker B mutant (D711A) (Bacillus cereus (integrated prophage)); experiment: SEC
[3] = target: BcMCM 501–1028 (helicase domain) (Bacillus cereus (integrated prophage)); experiment: negative-stain electron microscopy
BcMCM wild type [4] = target: T1, BcMCM wild type (Bacillus cereus (prophage), UniProt Q81EV1 1-1028); experiment: pull-down
T1 sequence: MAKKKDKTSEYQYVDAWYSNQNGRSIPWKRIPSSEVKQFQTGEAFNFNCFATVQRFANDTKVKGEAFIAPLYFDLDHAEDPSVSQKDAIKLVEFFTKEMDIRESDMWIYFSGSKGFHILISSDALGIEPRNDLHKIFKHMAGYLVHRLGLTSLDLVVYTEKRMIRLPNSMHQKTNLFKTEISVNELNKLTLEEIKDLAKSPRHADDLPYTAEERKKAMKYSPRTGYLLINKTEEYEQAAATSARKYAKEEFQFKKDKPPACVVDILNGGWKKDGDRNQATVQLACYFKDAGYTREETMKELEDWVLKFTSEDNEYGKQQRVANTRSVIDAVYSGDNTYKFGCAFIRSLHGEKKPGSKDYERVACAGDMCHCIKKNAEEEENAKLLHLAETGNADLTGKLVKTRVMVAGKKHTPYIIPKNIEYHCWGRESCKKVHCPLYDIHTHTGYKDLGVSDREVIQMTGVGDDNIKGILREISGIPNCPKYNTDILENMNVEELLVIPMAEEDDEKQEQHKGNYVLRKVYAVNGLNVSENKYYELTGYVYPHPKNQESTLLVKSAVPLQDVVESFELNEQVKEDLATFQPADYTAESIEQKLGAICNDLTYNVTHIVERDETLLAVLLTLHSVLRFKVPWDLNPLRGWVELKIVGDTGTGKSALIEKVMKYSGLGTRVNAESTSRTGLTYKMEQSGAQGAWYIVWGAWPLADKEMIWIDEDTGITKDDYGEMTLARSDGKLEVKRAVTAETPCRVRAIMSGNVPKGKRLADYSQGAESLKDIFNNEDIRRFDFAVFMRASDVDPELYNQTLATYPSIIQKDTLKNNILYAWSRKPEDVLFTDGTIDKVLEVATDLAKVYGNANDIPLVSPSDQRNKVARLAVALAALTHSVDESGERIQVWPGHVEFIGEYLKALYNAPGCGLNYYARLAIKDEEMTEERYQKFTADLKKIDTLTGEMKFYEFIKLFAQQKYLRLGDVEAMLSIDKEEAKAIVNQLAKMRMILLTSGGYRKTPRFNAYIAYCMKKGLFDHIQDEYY

BcMCM wild type [5] = target: T1, BcMCM wild type; experiment: EMSA

In the case of “BcMCM presensor I β-hairpin mutant (R737A) (enzyme)”, the stoichiometry N [1] is reported as 6.

Work on BcMCM Walker B mutant (D711A) (enzyme) yielded a stoichiometry N [2] of 6.

With “BcMCM 501–1028 (helicase domain) (domain or fragment)” the stoichiometry N [3] was 6.

B1: biotin-EcoRI-(dT)50 tailed duplex (mixed)
DNA 1: TCCCCCGAATTCCCCCCTTTTTTTTTTTTTTTTTTTTTTTTTTTTTTTTTTTTTTTTTTTTTTTTTT
DNA 2: GGGGGGAATTCGGGGG
modifications: 5' biotin on strand 1
B1: binds (BcMCM wild type [4]).

B2: bubble (dsDNA)
DNA 1: ACTGGCCGTCGTTTTACAACGTCGTGACTGGGAAAACCCTGGCGTTACCCAACTTAATCG
DNA 2: CGATTAAGTTGGGTAACGGGTCCCAAAAGGGTCAGTGCTGCATGTAAAACGACGGCCAGT
B2: binds (BcMCM wild type [5]).

B3: template-primer, 5'-end oligo (mixed)
DNA 1: B2 DNA 1
DNA 2: GTTGTAAAACGACGGCCAGT
B3: binds (BcMCM wild type [5]).

B4: template-primer, 3'-end oligo (mixed)
DNA 1: B2 DNA 1
DNA 2: CGATTAAGTTGGGTAACGCC
B4: binds (BcMCM wild type [5]).
